Reference: the nanobody polyreactivity screen of Harvey et al. (2022)

Test: yeast display, Sf9 membrane polyspecificity reagent, FACS + sequencing; frameworks hold sequencing errors
Method in brief: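 A synthetic nanobody library was expressed on Saccharomyces cerevisiae BJ5465 by galactose induction for 36–48 hours. The library was stained for 1 hour at 4 °C with 10% biotinylated, detergent-solubilized Sf9 membrane reagent and enriched with streptavidin microbeads before FACS. Low and high (top ~1%) gates were set on anti-HA fluorescence for expression and streptavidin fluorescence for reagent binding, and each polyreactivity label reflects the gate of origin.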

Sequence	polyreactivity (PSR sort gate)
QVQLVESGGGLVQAGGSLRLSCAASGRIFVNNAMGWYRQAPGKERELVAAITGRGTRTYYADSVKGRFTISRDNAKNTVYLQMNSLKPEDTADYYCNAVSTAVIGYEYDYWGQGTQVTVSS	high polyreactivity
QVQLVESGGGLVQAGGSLRLSCAASGRIFQGYAMGWYRQAPGKEREFVAVISTSGGRTSYADSVKGRFTISRDNAKNTVYLQMNSLKPEDTAVYYCNALYGRYGWSKNYYWGQGTQVTVSS	high polyreactivity
QVHLLDSVGGLVQAGGSLRLSCAACGRIVGTNAMGWYRQAPGKERELVATITRGGGNTYYADSVKGRFTISRDNAKNTVYLQLNSLKPEDTAGYDCAAKFHRFAWYSHYAYWGQGTQVTVSS	low polyreactivity
QVQLVESGGGLVQAGGSLRLSCAASGSIFASYDMGWYRQAPGKERELVARITFNGGSTYYADSVKGRFTISRDNAKNTVYLQMNSLKPEDTAVYYCANDYRYIFIYPYGWTRYDYWGQGTQVTVSS	low polyreactivity
QVQLVESGGGLVQAGGSLRLSCAASGSTFVYNAMGWYRQAPGKERELVAAISWSDGSTYYADSVKGRFTISRDNAKNTVYLELNSLKPEDTAVYYCADEGYYSWDVHDYNYWGQGTQVTVSS	high polyreactivity
QVQLVESGGGLVQAGGSLRLSCAASGIIFGRYTMGWYRQAPGKERELVAAITSSGITYYADSVKGRFTISRDNAKNTVYLQMHSLTPEDTAVYYCAADSPVSVTADDGYSGQGTQVTVSS	low polyreactivity
QVQLVESGGGLVQAGGSLRLSCAASGGTFYDYAMGWYRQAPGKERELVAAISASGDSTYYADSVKGRFTISRDNAKNTVYLQMNSLKPEDTAVYYCAAEFTAFDGFDYWGQGTQVNVSS	low polyreactivity
QVQLVESGGGLVQAGGSLRLSCAASGSTFSRNAMGWSRQAPGKERELVAAISWRGGRTYYADSVKGRFTISRDNAKNTVYLQMNSLKPEDTAVYYCAAEHKYRYDYWGQGTQVTVSS	low polyreactivity
QVQLVESGGGLVQAGGSLRLSCAASGRTFARYDKGWYRQAPGKERELVAGINGDGGSTNYADSVKGRFTISRDNAKNTVYLQMNSLKPEDTAVFYCNVDQEDRKLHVSIKQLSDHWGQGTQVTVSS	low polyreactivity
QVQLVESGGGLVQAGGSLRLSCADSGNIFRSYKGWYRQAPGKERELVASISRRGGSTYYADSVKGRFTISRDNAKNTVYLQINSLKPEDSAVYYCARRWSWVNGVFGLYWGQGTQVTLSS	high polyreactivity
QVQLVESGGGLVQAGGSLRLSCAASGSTFYRNAMGWYRQAPGKERELVAAIRKTGGSTHYADSVKGRFTISRDNAKNTVYLQMNSLKPEDTAVYYCNATYIYGWYNYWGQGTQVTVSS	low polyreactivity
QVQLVESGGGLVQAGGSLRLSCAASGGIFGTNDLGWSRQAPGKERELVAAITSDSGSTYYADSVKGRFTISRDNAKNTVYLQMTSLKPEDTAVYYCAAEDGPWFYRYGYWGQGTQVTVSS	low polyreactivity
QVQLVESAGGLVQAGGSLRIICAASGRIFSVNSMGGYRQAPGKERELDATIRTDGTTNYADSVKGRFTISRDNAKNTVYLQMNSLQPGDPAVYYCNARIPYSWRYGYWGQGTQVTVSS	high polyreactivity
QVQLVESGGGLVQAGGSLRLSCAASGRIFYQNAMGWYRQAPGKERELVADISSGGSTYYADSVKGRFTISRDNAKNTVYLQMNSLKPEDTAVYYCAAEGQLFDLYDYWGQGTQVTVSS	low polyreactivity
QVQLVESGGGLVQAGGSLRLSCAASGNTFGRYAMGWYRQAPGKERELVAAITKRGGTTYYADSVKGRFTISRDNAKNTVYLKMNSLKPEDTAVYYCAAKRSVLRTADYDYWGQGTQVTVSS	high polyreactivity
QVQLVESGGGLVQAGGSLRLSCAASGSIFEYNAMGWYRPAPGKERELVAAISWSSGTTYYADSVKGRFTISLDNAKNSVYLQMNSLKPEDTAVYYCNAGRYGKDSDYWGQGTQVTVSS	low polyreactivity
QVQLVESGGGLVQAGGSLRLSCAASGRIFVWNAMGWYRQAPGKERELVAAITSSGGNTYYADSVKGRFTISRDNAKNTVYLQMNSLKPEDTAVYYCAARSSSRTQATTRYGYWGQGTQVTVSS	high polyreactivity
QVQLVESGGGLVQAGGSLRLSCAASGITFYGYAMGWYRPAPGKERELVARITISGRTNYADYVKGRFTISRDNAKNTVYLQMNSLKPEDTAVYYCATLVHWSYPYYYWGQGTQVTVSS	high polyreactivity
QVQLVESGGGLVQAGGSLRLICAASGRTFGGNAMGWYRQAPGKERELVAAISSGGSTNYADSVNGRFTISRDNAKNTVYFLMNSLKPEDTAVYYCAADSKIGSFDSWGQGTQVTVSS	low polyreactivity
QVQLVESGGGLVQAGGSLRLSRAASGRSYVYAMGWYRQAPGTETEVVAAISTISSSTYYADSVKGRFTISRDNAKNTVYLQMNSLKPEDTAVYYCAADYSQYYYYGWIDSDYWGQGTQVTVSS	high polyreactivity
QVQLVESGGGLVQAGGILRLSCAASGSIFGWYAMGWYRQAPGKERELVAGISWSGANTYYADSVKGRFTISRDNAKNTVYLQMNSLKPEDTAVYYCAAGPGRYYSRRYGYWGQGTQVTVSS	high polyreactivity
QVQLVESGGGLVQAGGSLRLSCAASGSTFKYYVMGWYRQAPGKERELVAAISGRTGSTYYADSVKGRFTISRDNAKNTVYLQMNSLKPEDTAVYYCAKRGFLYWDHVSGFYRYDYWGQGTQVTVSS	low polyreactivity

Sequence	polyreactivity (PSR sort gate)
QVQLVESGGGLVQAGGSLRLSCAASGRTFRFYAMGWYRQAPGKERELVAAITYGGGSTYYADSVKGRFTISRDNAKNTVYLQMNSLKPEDTAVYYCAARAGRVPSWSGRTRYYYGGQGTQVTVSS	high polyreactivity
QVQLVESGGGLVQAGGSLRLSCAASGRTFGRNAMGWYRQAPGKERELVAAISLRGGRTYYADSVKGRFTISRDNAKNTVYLQMNSLKPEDTAVYYCAAVQPVGLYPRTKYYYWGQGTQVTVSS	high polyreactivity
QVQLVESGGGLVQAGGSLRLSCAASGSTFSHNAMGWYRQAPGKERELVAAISTSGSRTYYADSVKGRFTISRDNAKNSVYLQMNSLKPEDTAVYYCNTVPIYYSGYDYWGQGTQVTVSS	high polyreactivity
QVQLVESGGGLVQAGGSLRLSCAASGRTFGPYTMGWYRQAPGKERELVATIRSDNTYYADSVKGRFTISRDNAKNTVYLQMNSLKPEDTAVYYCNAGYYSRYSYPYKYYYWGQGTQVTVSS	high polyreactivity
QVQLVESGGGLFQAGGSLRLSCAASGFTIYHNAMRWYRQEPGKERELVAAISSSGDSTYYADSVKGRFTISRDNAKNTVYLQMNSLKPEDTAVYYCNDYFYYLSLYYYYWFNYDYWGQGTQVTVSS	low polyreactivity
QVQLVESGGGLVQAGGSLRLSCAASGRIFQRNAMGWYRQAPGKVWELVAAITSTGVRTYYADSVKGRFTISRDNAKNTVYLQMNSLKPEDSAVYYCNAVGRRVRTWHDYDYWGQGTQVTVSS	high polyreactivity
QVQLVESGGGLVQAGGSLRLSCAASGRIFVEYAMGWYRQAPGKERELVAAINSGGSTNYADSVKGRFTISRDNAKNTVYLQMNSLKPEDTAVYYCNKDTLVYGYVQDYEYWGQGTQVTVSS	low polyreactivity
QVQLVESGGGLFQAGGSLRLSCAASGRIFDYNVMGWYRQAPGKERELVADINGSGGGTNYADSVKGRFTISRDNAKNTVYLQMNSLKPEDTAVYYCNADSYEYHVPYYDYRYDYWGQGTQVTVSS	low polyreactivity
QVHHVESAGGLVQAGGSLRLICAASGSTFDYYAMGWYRQEPGKERELLAGIDSAGSTNYADSVKGRFTISRDNAKNTVYLQMNSVKTGTYRGLYCNVGKTITTYAFPTFDYWGQGSQVTVSS	low polyreactivity
QVQLVESGGGLVQAGCSLRLSCAASGSTLDGNAMGWYRQPPGKERELVAAISVSGGTTYYADSVKGRFTISRDNAKNNVYLQMNSLKREDTAVYYCSTEWRPRYYGTEPFDSWGQGTQVTVSS	high polyreactivity
QVQLVESGGGLVQAGGSLRLSCAASGRTFVGNTMGWYRQAPGKERELVAAISSGGRTYYADSVKGRFTISRDNAKNTVYLQMNSLKPEDTAVYYCAARRRGKVVPTSQFDYWGQGTQVTVSS	high polyreactivity
QVQLVESGGGLVQAGGSLRLSCAASGRTLGRYAMGWYRHAPGKERELVADISFRGGSTYYADSVKGRFTISRDNAKNTVYLQMNSLKPVDTAVYYCAAVPGPASKYGYWGQGTQVTVSS	high polyreactivity
QDQHVESGGGLVQAGGSLRLSCAASGSTLYRYAMGWYRQAPGKERELVAAISSAGSTHYADSVKGRFTISRDNAKNTVYLQKNSLKPEDTAVYYCAKVVKKIEFDYWGQGTQVTVSS	high polyreactivity
QVQLVESWGGLVQAGGSLRLSCVPPDSSSLTILWDGIDRRLGKKGSWLPVLTSRGVGTYYADSVKGRFTNSRDNAKNTFYLQMNSMKPEDSAVYYCNARYEVFYRYDYWGHGTQVTVSS	low polyreactivity
QVQLVESGGGLVQAGGSLRLSCAASGSIFVYNDMGWYRQAPGKERELVAGIDWSGDRTYADSVKGRFTISRDNAKYTVYLQMNSLKPEDTAVYYCNAERYPYRLRARKLDYWGQGTQVTVSS	low polyreactivity
QVQLVESGGGLVQAGGSLRLSCAASEFIFARNGMGWYRQAPGKERELVAAITNSGSTYADSVKGRFTISRDNAKNTVYLQMNSLKPEDTAVYYCNKDPGNVSSYTGGGYWGQGTQVTVSS	low polyreactivity
QVQLVESGGGLVQAGGSLRLSCAASGSTFRGYAMGWYRQAPGKEREFVAAISRRGGTTYYADSVKGRFTISRDNAKNTVDLQMNSRNPEDTAVYYCNAVLYARQRDRWARYDYWGQGTQVTVSS	high polyreactivity
QVQLVESGGCLVQAGGRLRLSCAASGYIFDRNAMGWYRQAPGTERELVAAITKRGGITYYADSVKGRFTISRDNAKFSGYLQMNSLKPEDTAVYYCNALARSSRYDYWGQGTQVTVSS	low polyreactivity
QVQLVESGGGLVQAGGSLRLSSAASGRTFFPNAMGWYRQAPGKERELVAAISSGGGGTYYADSVKGRFTISRDKAKNTVYLQMNRLKPEDTAVYYCAGRNSKVEEEGNYWGQGTQVTVSS	low polyreactivity
QVQLVESGGGLVQAGGSLRLSCAASGSNFDPNAMGWYRQAPGKERELVAAISWSGGSTYYADSVKGRFTISRDNAKNTVYLQMNSLKPEDTAVSYCNAQFYDSYSYTNDDWGQGTLVTVSS	low polyreactivity
QVHLVESGGGFVQAGGSLRLSCAASGSIFVINGMGWYRQAPGKERELVAAISSRGGDTYYADSVKGRFTISRDNAKNTVYLQMNSLKPEDTAVYYCNARYYTSYDYWGQGTKVTVSS	low polyreactivity
